Assay [1] deals with His6-tagged Cbx3 chromodomain (peptide arrays) (human, UniProt Q13185 29-81). As to the kind of experiment: peptide or protein array.
For assay [2], the target named is T1, Cbx8 chromodomain, Cbx8-(8–61) (human, UniProt Q9HC52 8-61).
T1 sequence: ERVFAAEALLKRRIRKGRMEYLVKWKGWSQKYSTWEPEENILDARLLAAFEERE

Assay [3] deals with T2, Cbx7 chromodomain, Cbx7-(8–62) (human, UniProt O95931 8-62).
T2 sequence: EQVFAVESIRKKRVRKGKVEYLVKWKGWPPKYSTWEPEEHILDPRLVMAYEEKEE

The target in assay [4] is T3, Cbx6 chromodomain, Cbx6-(8–65) (human, UniProt O95503 8-65).
T3 sequence: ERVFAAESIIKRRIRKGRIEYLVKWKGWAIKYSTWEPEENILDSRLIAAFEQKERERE
In words: fluorescence polarisation. (Fluorescence polarisation rises when a labelled molecule tumbles more slowly, as on binding a larger partner.)

In assay [5] the target is T1, Cbx8 chromodomain, Cbx8-(8–61). In words: fluorescence polarisation.
The target in assay [6] is T4, Cbx4 chromodomain, Cbx4-(8–65) (human, UniProt O00257 8-65).
T4 sequence: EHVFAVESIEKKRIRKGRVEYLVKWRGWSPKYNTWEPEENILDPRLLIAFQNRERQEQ
In words: fluorescence polarisation.

The target of assay [7] is T5, Cbx2 chromodomain, Cbx2-(9–66) (human, UniProt Q14781 9-66).
T5 sequence: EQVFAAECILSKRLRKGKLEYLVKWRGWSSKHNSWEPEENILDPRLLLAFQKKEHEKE
As to the kind of experiment: fluorescence polarisation.

Assay [8] concerns the target T2, Cbx7 chromodomain, Cbx7-(8–62). As to the kind of experiment: fluorescence polarisation.
Assay [9] deals with T6, His6-tagged Cbx7 chromodomain (peptide arrays) (human, UniProt O95931 8-62).
T6 sequence: T2 sequence
As to the kind of experiment: peptide or protein array.

The target of assay [10] is Cbx1 chromodomain, Cbx1-(20–73) (human, UniProt P83916 20-73). As to the kind of experiment: fluorescence polarisation.
Sequence of Cbx1 chromodomain, Cbx1-(20–73) (P83916 20-73): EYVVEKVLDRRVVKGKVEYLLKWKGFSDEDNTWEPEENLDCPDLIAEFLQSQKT
Assay [11] concerns the target Cbx5 chromodomain, Cbx5-(18–75) (human, UniProt P45973 18-75). In words: fluorescence polarisation.

The values below come from publication PMC3013012 (The Journal of Biological Chemistry, 2010).

Read-outs that look alike come from different tables or passages of the source. Square brackets hold non-standard residues; d marks the D form. Ends that are not written are not given here. Lys(Me3) = C[N+](C)(C)CCCC[C@H](N)C(=O)O

Sequence of His6-tagged Cbx3 chromodomain (peptide arrays) (Q13185 29-81): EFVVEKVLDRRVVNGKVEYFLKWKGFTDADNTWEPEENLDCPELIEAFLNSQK
Sequence of Cbx5 chromodomain, Cbx5-(18–75) (P45973 18-75): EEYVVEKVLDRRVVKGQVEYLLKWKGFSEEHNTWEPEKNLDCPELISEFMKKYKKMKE

Turning to TKNTAR[Lys(Me3)]STGGKA (also: held on a cellulose membrane through a polyethylglycol linker) [histone H3 residues 3–15, K9me3, Gln-5 to Asn array peptide], in assay [1], the binding result was “binds”.
Broadly, the Kd is the concentration at which binding is half-saturated. Take RQVAV[Lys(Me3)]STR [SETDB1 peptide RQVAVKme3STR]: the Kd in assay [2] is 98 µM; in assay [3], 43 µM.
The matching figures for HGIAI[Lys(Me3)]STN [SETDB1 peptide HGIAIKme3STN]: 37 µM and 5 µM.
Take fluorescein-QLATKTAR[Lys(Me3)]SAPATG [H3K27Me3A24T peptide (QLATKTARK(me3)SAPATG), fluorescein-labeled]: the Kd is over 500 µM in [4]; over 500 µM in assay [5]; 250 µM in [6]; 330 µM in assay [7]; 210 µM in assay [8].
As to TKCTAR[Lys(Me3)]STGGKA (also: held on a cellulose membrane through a polyethylglycol linker) [histone H3 residues 3–15, K9me3, Gln-5 to Cys array peptide], the binding result in assay [1] is “binds”.
As for ATKAAR[Lys(Me3)]SAPATG (also: held on a cellulose membrane through a polyethylglycol linker) [histone H3 residues 21–33 with trimethylated Lys-27, membrane-immobilized array peptide], in [9], the binding result is reported as “binds”.
On to QLATKAARKSAPATG (trimethyllysine at 27; fluorescein on the N-terminus) [H3K27Me3 peptide (QLATKAARK(me3)SAPATG), fluorescein-labeled], for which the Kd is over 500 µM in assay [4]; over 500 µM in assay [5]; 205 µM in assay [6]; 185 µM in [7]; 110 µM in assay [8].
Molecule RGFAL[Lys(Me3)]STHG [SETDB1 peptide 1165-RGFALKme3STHG] came in with a Kd in assay [3] of 5 µM.
As to TKQTAR[Lys(Me3)]STGGKA (also: held on a cellulose membrane through a polyethylglycol linker) [histone H3 residues 3–15 with trimethylated Lys-9, membrane-immobilized array peptide], the binding result in assay [9] and in [1] was “binds” each time.
Take TKQVAR[Lys(Me3)]STGGKA (also: held on a cellulose membrane through a polyethylglycol linker) [histone H3 residues 3–15, K9me3, T6V array peptide]: the binding result in [1] is on record as “binds”.
With fluorescein-ARTKQAAR[Lys(Me3)]STGGKA [H3K9Me3T6A peptide (ARTKQAARK(me3)STGGKA), fluorescein-labeled], the Kd in assay [10] turned out to be 45 µM; in [6] it was 80 µM; in assay [8], 140 µM.
In the case of ARTKQTARKSTGGKA (trimethyllysine at 9; fluorescein on the N-terminus) [H3K9Me3 peptide (ARTKQTARK(me3)STGGKA), fluorescein-labeled], the values for the Kd in assay [11], in assay [10] and in assay [6] were 30 µM, 5 µM and 70 µM, respectively.
As for TKHTAR[Lys(Me3)]STGGKA (also: held on a cellulose membrane through a polyethylglycol linker) [histone H3 residues 3–15, K9me3, Gln-5 to His array peptide], in assay [1], the binding result is “binds”.
